# Laboratory results taken from PMC5843802, “DATATOC: a novel conjugate for kit-type ^68Ga labelling of TOC at ambient temperature” (EJNMMI Radiopharmacy and Chemistry, 2016).
# Format: physicochemical
# Description: The lipophilicity was determined using the shake-flask method (logP) and qualitatively by radio-HPLC relative to ^68Ga-DOTATOC (Notni et al. [2013]; Du et al. [1998]). Radiolabels were prepared following acetone-PP. Analytical radio-HPLC (LiChrospher 100-RP-18EC, 1 mL/min) for lipophilicity studies was based on a gradient using H2O (A) and MeCN (B), each containing 0.1 % TFA. Mobile phase gradient: 0–1.5 min 1 % B, 1.5–10.5 min 99 % B, 11.5 min 99 % B, 12–15 min 1 % B. The HPLC was coupled to a UV (Hitachi L-7400) and a radioactivity (Gamma Raytest) detection system. HPLC grade solvents were used and degassed by sonication for 15–20 min prior to use.
compound,measurement,value
"C[C@@H](O)[C@@H]1NC(=O)[C@H](CCCCN)NC(=O)[C@@H](Cc2c[nH]c3ccccc23)NC(=O)[C@H](Cc2ccc(O)cc2)NC(=O)[C@@H](NC(=O)[C@@H](Cc2ccccc2)NC(=O)CN2CCN(CC(=O)O)CCN(CC(=O)O)CCN(CC(=O)O)CC2)CSSC[C@@H](C(=O)N[C@H](CO)[C@@H](C)O)NC1=O [^68Ga-DOTATOC, metal not drawn]",radio-HPLC retention time (tR) as measure of lipophilicity,10.3 min
